Laboratory results: US6544767

Target: mature recombinant human cathepsin O2 (human) (UniProt P43235)
Test: cell-based or functional assay

Chain of mature recombinant human cathepsin O2 (human) (P43235 115-329): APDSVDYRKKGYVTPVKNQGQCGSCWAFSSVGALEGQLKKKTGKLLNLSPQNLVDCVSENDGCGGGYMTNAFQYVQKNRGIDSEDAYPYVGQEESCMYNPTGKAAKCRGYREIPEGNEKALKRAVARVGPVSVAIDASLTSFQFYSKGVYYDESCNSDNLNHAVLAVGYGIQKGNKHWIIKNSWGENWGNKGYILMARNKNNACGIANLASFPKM

% inhibition (of cathepsin O2 activity, fluorimetric Z-FR-MCA assay, 0.1 µM inhibitor): 100%
Substance: chicken cystatin (from UniProt P01038 24-139)
